From patent US20070218504A1, “HUMAN LEPTIN-DERIVED POLYPEPTIDES AND USES THEREOF” (UNIVERSITY OF PITTSBURGH, priority 2006, published 2007)
Entries after “also recorded” stand apart in the source; their conditions may differ.

Tests used:
[1] = test system: insulin-stimulated PI3-kinase activity; test: Insulin-stimulated PI3-kinase activity in 3T3-L1 adipocytes; assay type: cell-based
mouse leptin = target: T1, mouse leptin (Mus musculus, UniProt P41160); test: Immuno-precipitation assay of direct binding of rat CRP and mouse leptin; settings: leptin/CRP mixture and rat serum; Western blot with anti-CRP
T1 construct: purchased AF Parlow of NHPP, Torrance, CA
Description: To explore a physical interaction between CRP and leptin, the direct binding of these proteins was determined by an immuno-precipitation assay. Rat CRP was purified from fresh rat serum to >95% purity employing a previously established affinity-purification protocol (20). […] The purified human- and rat-CRP proteins were pre-mixed with recombinant human and mouse leptin, respectively, before addition of antibodies specific for human- and mouse-leptin. The concentrations of CRP and leptin in the precipitation reaction were all within the physiological ranges that have been observed in humans or rats (11 & 15). In parallel experiments, recombinant leptin also was pre-mixed with human- or rat-serum to allow for direct interaction prior to immuno-precipitation. The protein precipitates obtained were subjected to Western blot assays using specific anti-CRP antibodies.

[2] = test system: tyrosine phosphorylation of STAT3; test: Leptin-induced tyrosine phosphorylation of STAT3 in HEK293 cells over-expressing OB-Rb in the presence of CRP (Western blot); assay type: cell-based, human; settings: murine/mouse leptin; HEK293 OB-Rb
Description: To determine if the interaction between CRP and leptin dampens the cellular actions of leptin, the ability of leptin to stimulate tyrosine phosphorylation of STAT3 and PI3-kinase activity was assessed in the presence of CRP in vitro. HEK293 cells over-expressing OB-Rb were serum starved for 2 hours before addition of leptin and CRP (CHEMICON or EMD Biosciences). Leptin, in the presence or absence of CRP, was pre-incubated in μ-MEM (with additional 1 mM Ca^2+) for 30 minutes at 37° C. before being applied to the cells. After a 30-minute incubation with leptin, the cells were harvested in lysis buffer (18). The resultant protein extract was subjected to a Western blot analysis using an anti-phospho-STAT3 specific antibody (Cell Signaling, Beverly, Mass.). For studies involving primary hypothalamic neurons, the hypothalamus from rats was surgically isolated immediately after euthanasia, and placed in the DMEM for incubation with leptin in the presence or absence of CRP.

T1 sequence (P41160 22-167): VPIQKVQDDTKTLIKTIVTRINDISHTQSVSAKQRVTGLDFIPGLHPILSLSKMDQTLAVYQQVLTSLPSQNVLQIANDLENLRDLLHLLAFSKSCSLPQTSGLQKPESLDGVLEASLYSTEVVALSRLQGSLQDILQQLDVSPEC

co-precipitation of CRP with anti mouse-leptin antibody (mouse leptin): could bring down rat CRP
B1: rat CRP: rat C-reactive protein purified from fresh rat serum to >95% purity (protein)
chain: HEDMSKQAFVFPGVSATAYVSLEAESKKPLEAFTVCLYAHADVSRSFSIFSYATKTSFNEILLFWTRGQGFSIAVGGPEILFSASEIPEVPTHICATWESATGIVELWLDGKPRVRKSLQKGYIVGTNASIILGQEQDSYGGGFDANQSLVGDIGDVNMWDFVLSPEQINAVYVGRVFSPNVLNWRALKYETHGDVFIKPQLWPLTDCCES
effect on insulin-stimulated PI3-kinase activity [1]: did not block
effect of CRP on murine leptin-induced tyrosine phosphorylation of STAT3 [2]: attenuating effects; also recorded: attenuate
